Reference: paper PMC12669651

Key:
[1] = O-GlcNAc at S296
ROS detection in BMSCs = conditions: glycan lost; control: wild-type Foxo3
[2] = cycloheximide chase, Western blot, Foxo3-KO BMSCs; conditions: glycan lost; control: wild-type Foxo3

B1: FOXO3: S296V (protein)
parent chain: MAEAPASPVPLSPLEVELDPEFEPQSRPRSCTWPLQRPELQASPAKPSGETAADSMIPEEDDDEDDEDGGGRASSAMVIGGGVSSTLGSGLLLEDSAMLLAPGGQDLGSGPASAAGALSGGTPTQLQPQQPLPQPQPGAAGGSGQPRKCSSRRNAWGNLSYADLITRAIESSPDKRLTLSQIYEWMVRCVPYFKDKGDSNSSAGWKNSIRHNLSLHSRFMRVQNEGTGKSSWWIINPDGGKSGKAPRRRAVSMDNSNKYTKSRGRAAKKKAALQAAPESADDSPSQLSKWPGSPTSRSSDELDAWTDFRSRTNSNASTVSGRLSPILASTELDDVQDDDGPLSPMLYSSSASLSPSVSKPCTVELPRLTDMAGTMNLNDGLAENLMDDLLDNIALPPSQPSPPGGLMQRGSSFPYTAKSSGLGSPTGSFNSTVFGPSSLNSLRQSPMQTIQENRPATFSSVSHYGNQTLQDLLASDSLSHSDVMMTQSDPLMSQASTAVSAQNARRNVMLRNDPMMSFAAQPTQGSLVNQNLLHHQHQTQGALGGSRALSNSVSNMGLSDSSSLGSAKHQQQSPASQSMQTLSDSLSGSSLYSASANLPVMGHDKFPSDLDLDMFNGSLECDMESIIRSELMDADGLDFNFDSLISTQNVVGLNVGNFTGAKQASSQSWVPG
degradation_or_half_life [1]: decreases, half-life from 24 hours to 12 hours
other: cellular ROS level (ROS detection in BMSCs): increases
degradation_or_half_life, half_life [2]: decreases, 12 vs 24
